Laboratory results reported in PMC9355956, “Structure of human spermine oxidase in complex with a highly selective allosteric inhibitor” (Communications Biology, 2022).
“And” between values parts separate entries of the source, which are not always exact repeats. Equal values may be shown once.

Substrate: NCCCNCCCCNCCCN
Assay: purified protein, by the assay type
Details: other: substrate, 2.5 nM hSMOX; 11.3 °C

B1: hSMOX (Homo sapiens) (protein)
chain: MQSCESSGDSADDPLSRGLRRRGQPRVVVIGAGLAGLAAAKALLEQGFTDVTVLEASSHIGGRVQSVKLGHATFELGATWIHGSHGNPIYHLAEANGLLEETTDGERSVGRISLYSKNGVACYLTNHGRRIPKDVVEEFSDLYNEVYNLTQEFFRHDKPVNAESQNSVGVFTREEVRNRIRNDPDDPEATKRLKLAMIQQYLKVESCESSSHSMDEVSLSAFGEWTEIPGAHHIIPSGFMRVVELLAEGIPAHVIQLGKPVRCIHWDQASARPRGPEIEPRGEGDHNHDTGEGGQGGEEPRGGRWDEDEQWSVVVECEDCELIPADHVIVTVSLGVLKRQYTSFFRPGLPTEKVAAIHRLGIGTTDKIFLEFEEPFWGPECNSLQFVWEDEAESHTLTYPPELWYRKICGFDVLYPPERYGHVLSGWICGEEALVMEKCDDEAVAEICTEMLRQFTGNPNIPKPRRILRSAWGSNPYFRGSYSYTQVGSSGADVEKLAKPLPYTESSKTAPMQVLFSGEATHRKYYSTTHGALLSGQREAARLIEMYRDLFQQGT
  Km: 34 µM and 33.9 ± 2.7 µM
